According to patent US20060234291A1 (MODPRO, published 2006):
Non-standard residues stand in square brackets, D forms with d. Nle = CCCC[C@H](N)C(=O)O; Orn = NCCC[C@H](N)C(=O)O

B1: LA-42h (peptide)
chain: Ac-NAAD[Nle]EAKIRHLAEK[Nle]AARGPVDAAQ[Nle]AEQLAKKFEAFARAG-NH2
modifications: also: two monomers associate antiparallel into four-helix bundle (dimer)
notes: two monomers associate antiparallel into a four-helix bundle

Tests used:
[1] = target: the molecule itself; assay: 1H NMR NOESY, self-association
Protocol: The secondary and tertiary structures of LA-42h were investigated by ¹H-NMR spectroscopy. The ¹H-NMR spectrum of LA-42h was assigned from the TOCSY and NOESY spectra recorded in H₂O:D₂O (90:10 v/v) containing 4 vol % of TFE-d₃ at 308 K using methods described in detail previously [S. Olofsson, L. Baltzer, Folding & Design 1996, 347-356]. Most of the spin systems of the amino acids were identified from the αH—NH region in the TOCSY spectrum and the sequential assignments of residues 5 to 19 and 23 to 41were obtained from the NH—NH region in the NOESY spectrum. Due to the cis-trans equilibrium of Pro21, an extra set of resonances with low intensity from the amino acids near the proline in the loop region was identified. The aH chemical shifts are diagnostic of secondary structure formation, and the measured values were compared to tabulated values for random coil conformations [D. S. Wishart, B. D. Sykes, F. M. Richards, J. Mol. Biol. 1991, 222, 311-333]. From their upfield shifts relative to the random coil values, two helical segments were identified in the sequence of LA-42h from […] Nle16 and from Ala25 to Arg40. A loop region was also assigned from the downfield shifts, or absence of deviation relative to random coil conformation, of the α protons. […]

[2] = target: the molecule itself; assay: 1H NMR NOESY and CD spectroscopy, self-association
From the text: This is because NOEs only arise between nuclei separated by less than 5 Å [K. Wüthrich, NMR of proteins and nucleic acids, John Wiley & Sons, Inc., 1986] and the distances between Phe35 and Nle16, and between N15 and Lys19, are too long to give rise to NOEs within the monomer and too long to give rise to NOEs in a parallel dimer. […] The inventor concludes that KA-I forms an antiparallel dimer of helix-loop-helix hairpin motifs, and that residues in a and d positions are positioned in the hydrophobic core, whereas all other residues are solvent exposed.
CD spectra were recorded on a Jasco J-715 CD spectropolarimeter, in 0.1, 0.5, or 1 mm cuvettes in the interval from 280-190 nm at room temperature. Each spectrum is an average of six scans and the background was subtracted from the spectrum before the mean residue ellipticity at 222 nm was measured. A 1 mM stock peptide solution was prepared by dissolving the peptide in buffer, under the assumption that the lyophilized peptide contains 25% water. The pH was adjusted by addition of small amounts of 0.1 M-1 M NaOH or HCl. For the concentration dependent studies the stock peptide solution was diluted to the desired concentrations by pipetting. […] The concentration of the stock solution for the concentration dependent measurement was determined by quantitative amino acid analysis. […]

Row | Protein | binding result [1] | binding result [2]
1 | B1 | binds | 
2 | Ac-NAAD[Nle]EAAIKALAEK[Nle]AAKGPVDAAQ[Nle]AEQLAK[Orn]FEAFARAG-NH2 (also: two monomers associate antiparallel into four-helix bundle (dimer)) [KA-I] |  | binds
